The values below come from patent US20070098719A1 (GITR, published 2007).

The target in assay [1] is T1, human GITR (hGITR), glucocorticoid-induced TNF receptor (UniProt Q9Y5U5 26-241).
T1 chain: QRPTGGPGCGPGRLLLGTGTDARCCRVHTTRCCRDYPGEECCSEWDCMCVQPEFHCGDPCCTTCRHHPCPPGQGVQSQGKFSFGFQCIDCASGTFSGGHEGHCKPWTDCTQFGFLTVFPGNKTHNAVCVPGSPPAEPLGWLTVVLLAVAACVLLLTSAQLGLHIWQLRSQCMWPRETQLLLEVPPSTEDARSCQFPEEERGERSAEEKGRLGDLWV
In words: SPR. (In SPR one partner is held on a chip, and binding of the other changes the refractive index at the surface.)

The target of assay [2] is T2, human GITR (hGITR), glucocorticoid-induced TNF receptor (human, UniProt Q9Y5U5 26-241).
T2 construct: also called TNFRSF18
T2 sequence: T1 chain
In words: FACS, L-M (mouse fibroblast) cells transfected with the GITR gene, 50 ul hybridoma supernatant. How it is done:
FIG. 3 depicts a FACS analysis of L-M (mouse fibroblast) cells transfected with the GITR gene that were stained with 50 μl of supernatant fluid from GITR-expressing hybridoma cells. The GITR binding molecule stained GITR-transfected cells but not the untransfected L-M cells.

B1: 6C8 antibody (antibody, V domains shown)
VH: QVTLKESGPGILKPSQTLSLTCSFSGFSLSTSGMGVGWIRQPSGKGLEWLAHIWWDDDKYYNPSLKSQLTISKDTSRNQVFLKITSVDTADAATYYCARTRRYFPFAYWGQGTLVTVSS
VL: DIVMTQSQKFMSTSVGDRVSVTCKASQNVGTNVAWYQQKPGQSPKALIYSASYRYSGVPDRFTGSGSGTDFTLTINNVHSEDLAEYFCQQYNTDPLTFGAGTKLEIK
notes: also called anti-GITR
As to B1, the Kd – broadly, the free concentration of one partner at which half of the binding sites on the other are occupied at equilibrium, for simple one-to-one binding – in assay [1] was 1.1 nM. Moreover, in assay [2], the binding result is “binds”.
